According to patent US6465220:

Columns and labels:
PSGL-1b peptide = target: T1, PSGL-1b peptide
T1 chain: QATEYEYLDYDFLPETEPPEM

PSGL-1a peptide = target: T2, PSGL-1a peptide
T2 chain: QATEYEYLDYDFLPEC

B1: soluble recombinant human GalNAc-T3 (pAcGP67-GalNAc-T3-sol) (protein)
chain: MERNMKNKNKMLDLMLEAVNNIKDAMPKMQIGAPVRQNIDAGERPCLQGYYTAAELKPVLDRPPQDSNAPGASGKAFKTTNLSVEEQKEKERGEAKHCFNAFASDRISLHRDLGPDTRPPECIEQKFKRCPPLPTTSVIIVFHNEAWSTLLRTVHSVLYSSPAILLKEIILVDDASVDEYLHDKLDEYVKQFSIVKIVRQRERKGLITARLLGATVATAETLTFLDAHCECFYGWLEPLLARIAENYTAVVSPDIASIDLNTFEFNKPSPYGSNHNRGNFDWSLSFGWESLPDHEKQRRKDETYPIKTPTFAGGLFSISKEYFEYIGSYDEEMEIWGGENIEMSFRVWQCGGQLEIMPCSVVGHVFRSKSPHSFPKGTQVIARNQVRLAEVWMDEYKEIFYRRNTDAAKIVKQKAFGDLSKRFEIKHRLQCKNFTWYLNNIYPEVYVPDLNPVISGYIKSVGQPLCLDVGENNQGGKPLIMYTCHGLGGNQYFEYSAQHEIRHNIQKELCLHAAQGLVQLKACTYKGHKTVVTGEQIWEIQKDQLLYNPFLKMCLSANGEHPSLVSCNPSDPLQKWILSQND
GalNAc-transferase activity (PSGL-1b peptide): exhibited poor activities with both peptide designs | GalNAc-transferase activity (PSGL-1a peptide): exhibited poor activities with both peptide designs

B2: soluble recombinant human GalNAc-T1 (pAcGP67-GalNAc-T1-sol) (protein)
chain: GLPAGDVLEPVQKPHEGPGEMGKPVVIPKEDQEKMKEMFKINQFNLMASEMIALNRSLPDVRLEGCKTKVYPDNLPTTSVVIVFHNEAWSTLLRTVHSVINRSPRHMIEEIVLVDDASERDFLKRPLESYVKKLKVPVHVIRMEQRSGLIRARLKGAAVSKGQVITFLDAHCECTVGWLEPLLARIKHDRRTVVCPIIDVISDDTFEYMAGSDMTYGGFNWKLNFRWYPVPQREMDRRKGDRTLPVRTPTMAGGLFSIDRDYFQEIGTYDAGMDIWGGENLEISFRIWQCGGTLEIVTCSHVGHVFRKATPYTFPGGTGQIINKNNRRLAEVWMDEFKNFFYIISPGVTKVDYGDISSRVGLRHKLQCKPFSWYLENIYPDSQIPRHYFSLGEIRNVETNQCLDNMARKENEKVGIFNCHGMGGNQVFSYTANKEIRTDDLCLDVSKLNGPVTMLKCHHLKGNQLWEYDPVKLTLQHVNSNQCLDKATEEDSQVPSIRDCNGSRSQQWLLRNVTLPEIF
GalNAc-transferase activity (PSGL-1b peptide): exhibited poor activities with both peptide designs | Km for acceptor substrate (PSGL-1b peptide): > 2000 µM | Km for acceptor substrate (Muc7 peptide): 40 µM | Vmax (Muc7 peptide): 0.76 nmol/min/µg | GalNAc-transferase activity (PSGL-1a peptide): exhibited poor activities with both peptide designs | Km for acceptor substrate (EA2 peptide): 70 µM | Vmax (EA2 peptide): 0.99 nmol/min/µg
